Experimental findings from ChEMBL document CHEMBL2074302, “ATP-dependent transport for glucuronides in canalicular plasma membrane vesicles” (Biochem Biophys Res Commun, 1991) are described below.

A word on the Km: it is the substrate concentration at which the rate is half of its maximum.

Substrate in this series: O=C(O)[C@H]1O[C@@H](Oc2ccc([N+](=O)[O-])cc2)[C@H](O)[C@@H](O)[C@@H]1O
Nature of the series: TP_TRANSPORTER: uptake in bile canalicular membrane vesicles from Wistar rat. The class given is functional, cell membranes, Bile canalicular membrane vesicle.

B1: ATP-binding cassette sub-family C member 2 (Rattus norvegicus) (protein)
chain: MDKFCNSTFWDLSLLESPEADLPLCFEQTVLVWIPLGFLWLLAPWQLYSVYRSRTKRSSITKFYLAKQVFVVFLLILAAIDLSLALTEDTGQATVPPVRYTNPILYLCTWLLVLAVQHSRQWCVRKNSWFLSLFWILSVLCGVFQFQTLIRALLKDSKSNMAYSYLFFVSYGFQIVLLILTAFSGPSDSTQTPSVTASFLSSITFSWYDRTVLKGYKHPLTLEDVWDIDEGFKTRSVTSKFEAAMTKDLQKARQAFQRRLQKSQRKPEATLHGLNKKQSQSQDVLVLEEAKKKSEKTTKDYPKSWLIKSLFKTFHVVILKSFILKLIHDLLVFLNPQLLKLLIGFVKSSNSYVWFGYICAILMFAVTLIQSFCLQSYFQHCFVLGMCVRTTVMSSIYKKALTLSNLARKQYTIGETVNLMSVDSQKLMDATNYMQLVWSSVIQITLSIFFLWRELGPSILAGVGVMVLLIPVNGVLATKIRNIQVQNMKNKDKRLKIMNEILSGIKILKYFAWEPSFQEQVQGIRKKELKNLLRFGQLQSLLIFILQITPILVSVVTFSVYVLVDSANVLNAEKAFTSITLFNILRFPLSMLPMVTSSILQASVSVDRLERYLGGDDLDTSAIRRVSNFDKAVKFSEASFTWDPDLEATIQDVNLDIKPGQLVAVVGTVGSGKSSLVSAMLGEMENVHGHITIQGSTAYVPQQSWIQNGTIKDNILFGSEYNEKKYQQVLKACALLPDLEILPGGDMAEIGEKGINLSGGQKQRVSLARAAYQDADIYILDDPLSAVDAHVGKHIFNKVVGPNGLLAGKTRIFVTHGIHFLPQVDEIVVLGKGTILEKGSYRDLLDKKGVFARNWKTFMKHSGPEGEATVNNDSEAEDDDDGLIPTMEEIPEDAASLAMRRENSLRRTLSRSSRSSSRRGKSLKNSLKIKNVNVLKEKEKEVEGQKLIKKEFVETGKVKFSIYLKYLQAVGWWSILFIILFYGLNNVAFIGSNLWLSAWTSDSDNLNGTNNSSSHRDMRIGVFGALGLAQGICLLISTLWSIYACRNASKALHGQLLTNILRAPMRFFDTTPTGRIVNRFSGDISTVDDLLPQTLRSWMMCFFGIAGTLVMICMATPVFAIIIIPLSILYISVQVFYVATSRQLRRLDSVTKSPIYSHFSETVTGLPIIRAFEHQQRFLAWNEKQIDINQKCVFSWITSNRWLAIRLELVGNLVVFCSALLLVIYRKTLTGDVVGFVLSNALNITQTLNWLVRMTSEAETNIVAVERISEYINVENEAPWVTDKRPPADWPRHGEIQFNNYQVRYRPELDLVLKGITCNIKSGEKVGVVGRTGAGKSSLTNCLFRILESAGGQIIIDGIDVASIGLHDLRERLTIIPQDPILFSGSLRMNLDPFNKYSDEEVWRALELAHLRSFVSGLQLGLLSEVTEGGDNLSIGQRQLLCLGRAVLRKSKILVLDEATAAVDLETDSLIQTTIRKEFSQCTVITIAHRLHTIMDSDKIMVLDNGKIVEYGSPEELLSNRGSFYLMAKEAGIENVNHTEL
On to B1, for which the Km is 20 µM.
